Test results: patent US20220372138A1 (IOMX THERAPEUTICS, published 2022)

T1: extracellular domain (ECD) of human IGSF11 (VSIG3), recombinant (human, UniProt Q5DX21 23-241)
T1 construct: biotinylated where captured on streptavidin; tags of the reagent not always stated; also called IGSF11 (ECD domain); ECD-IGSF11
T1 sequence: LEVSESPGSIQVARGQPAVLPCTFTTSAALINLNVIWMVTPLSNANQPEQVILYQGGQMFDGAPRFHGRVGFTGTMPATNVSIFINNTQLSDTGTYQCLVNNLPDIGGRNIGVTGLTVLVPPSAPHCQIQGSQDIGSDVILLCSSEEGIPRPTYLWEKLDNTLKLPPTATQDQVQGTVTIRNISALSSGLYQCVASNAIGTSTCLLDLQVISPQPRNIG

T2: ECD of murine IGSF11, recombinant biotinylated (mouse, UniProt P0C673 23-240)
T2 construct: whole entry named; also called Mouse IGSF11
T2 sequence: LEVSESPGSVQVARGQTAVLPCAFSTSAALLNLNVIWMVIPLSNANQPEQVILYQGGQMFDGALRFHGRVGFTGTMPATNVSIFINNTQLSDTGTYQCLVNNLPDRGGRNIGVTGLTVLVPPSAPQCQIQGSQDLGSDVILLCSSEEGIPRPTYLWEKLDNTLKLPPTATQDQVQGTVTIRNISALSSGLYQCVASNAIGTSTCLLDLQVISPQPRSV

T3: full-length ECD of human IGSF11 fused to murine Fc (human, UniProt Q5DX21 23-241)
T3 construct: also called Fc-fusion IGSF11 ECD; not shown: murine Fc
T3 sequence: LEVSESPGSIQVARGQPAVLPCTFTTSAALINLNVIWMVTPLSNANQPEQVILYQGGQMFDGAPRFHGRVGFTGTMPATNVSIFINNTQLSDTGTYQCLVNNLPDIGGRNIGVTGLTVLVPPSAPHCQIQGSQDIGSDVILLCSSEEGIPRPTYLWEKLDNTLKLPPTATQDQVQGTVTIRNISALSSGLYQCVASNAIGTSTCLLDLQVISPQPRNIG

T4: IgC2 domain of human IGSF11 fused to murine IgG2a Fc (human, UniProt Q5DX21 137-241)
T4 construct: not shown: murine IgG2a Fc-region
T4 sequence: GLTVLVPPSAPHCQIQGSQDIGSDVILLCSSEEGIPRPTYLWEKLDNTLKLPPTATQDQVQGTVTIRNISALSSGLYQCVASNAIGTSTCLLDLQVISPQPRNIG


Key:
[1] = target: T1, extracellular domain (ECD) of human …; assay: ELISA RFU 0.5-1.0
[2] = target: T2, ECD of murine IGSF11, recombinant …; assay: ELISA RFU 0.1-0.5
[3] = target: T3, full-length ECD of human IGSF11 fused …; assay: IgG ELISA;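 note: ELISA binding of IgG antibodies to plate-coated IGSF11 Fc-fusion proteins (full-length ECD, IgV or IgC2 domain), detected via HRP-labelled anti-human IgG with TMB development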
Procedure: (§1) Binding of IgG antibodies to each of the full-length ECD of IGSF11, to the IgV domain of IGSF11 and to the IgC2 domain of IGSF11, was tested in the ELISA assay as follows: briefly, recombinant domains of Fc-fusion IGSF11 proteins were coated at 2 ug/mL on a 384-well Maxisorp plate. The surface was blocked with 2% (w/v) skim milk powder in PBST. […] After removing all unbound antibodies by 3 wash cycles with PBST, bound IgG ABPs were detected with a goat anti-human IgG antibody conjugated with horseradish peroxidase. After three wash cycles with PBST the ELISA was developed with TMB substrate.

[4] = target: T4, IgC2 domain of human IGSF11 fused to …; assay: IgG ELISA;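 note: ELISA binding of IgG antibodies to plate-coated IGSF11 Fc-fusion proteins (full-length ECD, IgV or IgC2 domain), detected via HRP-labelled anti-human IgG with TMB development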
Procedure: as §1

Streptavidin = Streptavidin (UniProt P22629 37-163, limits assumed); assay: Fab ELISA
Streptavidin, sequence (P22629 37-163 limits assumed): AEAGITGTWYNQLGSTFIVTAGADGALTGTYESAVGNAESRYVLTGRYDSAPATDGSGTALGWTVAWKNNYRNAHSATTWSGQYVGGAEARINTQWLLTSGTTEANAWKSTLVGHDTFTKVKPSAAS

Binder	ELISA binding signal (RFU) [1]	ELISA binding signal (RFU) [2]	EC50 [4]	A450 (Streptavidin)	also measured
A-005 (scFv format) (scFv, V domains shown, scFv) VH: EVQLVESGGGLIQPGGSLRLSCAASGFTVSSNYMSWVRQAPGKGLEWVSVIYSGGSTYYADSVKGRFTISRDNSKNTLYLQMNSLRAEDTAVYYCARGNPYYYGDLQVNFDYWGQGTLVTVSS VL: QAVVTQEPSLTVSPGETVTLTCASSTGAVTSGYYPNWFQQRPGQAPRALIYSTSNKDSWTPARFSGSLLGGKAALTLSGVQPEDEAEYYCLLYYGGAWVFGGGTKLTVL	0.5 to 1 rfu	0.1 to 0.5 rfu	–	–	–
A-002 (scFv format) (scFv, V domains shown, scFv) VH: EVQLVESGGGLIQPGGSLRLSCAASGFTVSSNYMSWVRQAPGKGLEWVSVIYSGGSTYYADSVKGRFTISRDNSKNTLYLQMNSLRAEDTAVYYCARGNPYYYGDLQVNFDYWGQGTLVTVSS VL: QAVVTQEPSLTVSPGGTVTPTCGSSTGAVTSGNLPNWFQQKPGQAPRALIYSTSNKHSWTPARISGSLLGGKAALTLSGVQPEDEAEYYCLLYYGGAWVFGGGTKLTVL	0.5 to 1 rfu	0.1 to 0.5 rfu	–	–	–
A-009 (scFv format) (scFv, V domains shown, scFv) VH: QVQLVQSGAEVKKPGSSVKVSCKASGGTFSSYAISWVRQAPGQGLEWMGGIIPIFGTANYAQKFQGRVTITADESTSTAYMELSSLRSEDTAVYYCARGRGFGELYFDYWGQGTLVTVSS VL: ETTLTQSPATLSVSPGERATLSCRASQGVRSNIAWYQQKPGQAPRLLIYDSSTRATGIPARFSGSGSGTEFTLTISSLQSEDFAVYSCQQYKNWPRTFGQGTKVEIK	0.5 to 1 rfu	0.1 to 0.5 rfu	–	–	–
C-010 (IgG1 format) (antibody, V domains shown) VH: QVQLVQSGAEVKKPGSSVKVSCKASGGTFSSYAISWVRQAPGQGLEWMGGIIPIFGTANYAQKFQGRVTITADESTSTAYMELSSLRSEDTAVYYCARGYGEYYPAFDVWGQGTLVTVSS VL: SYELTQPPSVSVSPGQTASITCSGDKLGDKYASWYQQKPGQSPVLVIYQDSKRPSGIPERFSGSNSGNTATLTISGTQAEDEADYYCASYAHTHSTWVFGGGTKLTVL	–	–	1 to 20 nM	–	EC50 [3]: 20 to 100 nM
C-006 (IgG1 format) (antibody, V domains shown) VH: not shown VL: DIQMTQSPSSLSASVGDRVTITCRASQSISSYLNWYQQKPGKAPKLLIYAASSLQSGVPSRFSGSGSGTDFTLTISSLQPEDFATYYCQQSHQSPPITFGQGTKVEIK	–	–	< 1 nM	–	EC50 [3]: 1 to 20 nM
A-017 (scFv format) (scFv, V domains shown, scFv) VH: QVQLVQSGAEVKKPGASVKVSCKASGYTFTGYYMHWVRQAPGQGLEWMGWINPNSGNTGYAQKFQGRVTMTRNTSISTAYMELSSLRSEDTAVYYCARGGQQQLVLDDYWGQGTLVTVSS VL: DIVLTQSPASLSASVGDRITITCQASQDIRHHLNWFQHKPGKAPKLLISDSSNLETGVPSRFSGSGSGTDFSFTISRLQPEDIATYYCQQYDSLPRTFGQGTKLEIK	0.5 to 1 rfu	0.1 to 0.5 rfu	–	–	–
C-008 (Fab format) (Fab, V domains shown, Fab from E. coli lysate) VH: EVQLLESGGGLVQPGGSLRLSCAASGFTFSSYAMSWVRQAPGKGLEWVSAISGSGGSTYYADSVKGRFTISRDNSKNTLYLQMNSLRAEDTAVYYCTTDNGHNRDWGQGTLVTVSS VL: ASVLTQPPSVSAAPGQKVTISCSGSSSNIGNNYVSWYQQLPGTAPKLLIYDNNKRPSGIPDRFSGSKSGTSATLGITGLQAEDEADYYCGTWTRSSGVFGGGTKLTVL	–	–	–	< 0.1	–
A-021 (scFv format) (scFv, V domains shown, scFv) VH: QVQLVQSGAEVKKPGASVKVSCKASGYTFTSYGISWVRQAPGQGLEWMGWISAYNGNTNYAQKLQGRVTMTTDTSTSTAYMELRSLRSDDTAVYYCARVPAWSGQFDYWGQGTLVTVSS VL: QSALTQPASVSGSPGQSITISCTGTSSDVGGYNYVSWYQQHPGKAPKLMIYEVTNRPSGVSDRFSGSKSANTASLTISELQAEDEAVYYCNSYTSGPTYVLFGGGTQLTVL	0.5 to 1 rfu	0.1 to 0.5 rfu	–	–	–
A-014 (scFv format) (scFv, V domains shown, scFv) VH: QVQLVQSGAEVKKPGASVKVSCKASGYTFNDYYIHWVRQAPGQGLEWMGWFNPSTGGANYAQKFQGRVTMTRDTSISTAYLEVSSLRSDDTAVYYCARGNSPDLDYWGQGTLVTVSS VL: DIQMTQSPDSLTVSLGERATINCKSSQSLLHSSNNKNYLAWYQQRPGQPPKLLIYWASTRQSGVPDRFSGSGSGTDFTLTINSLQADDMAVYYCQQYYTTTPNTFGQGTKLEIK	0.5 to 1 rfu	0.1 to 0.5 rfu	–	–	–
A-024 (scFv format) (scFv, V domains shown) VH: QMQLVQSGAEVKKPGSSVKVSCKASGGTFSSYAISWVRQAPGQGLEWMGWISAYNGNTNYAQKLQGRVTMTTDTSTSTAYMELRSLRSDDTAVYYCASLGSYGYTGAFDIWGQGTMATVSS VL: QSALTQPASVSGSPGQSITISCTGTSSDVGGYNYVSWYQQHPGKAPKLMIYEVSNRPSGVSNRFSGSKSGNTASLTISGLQAEDEADYYCSSYTSSSTLVVFGGGTKLTVL	0.5 to 1 rfu	0.1 to 0.5 rfu	–	–	–
C-005 (Fab format) (Fab, V domains shown, Fab from E. coli lysate) VH: not shown VL: SYELTQPPSVSVSPGQTASITCSGDKLGDKYASWYQQKPGQSPVLVIYQDSKRPSGIPERFSGSNSGNTATLTISGTQAEDEADYYCHSYTGKPSQVVFGGGTKLTVL	–	–	–	< 0.1	–
C-009 (Fab format) (Fab, V domains shown, Fab from E. coli lysate) VH: not shown VL: SYELTQPPSVSVSPGQTASITCSGDKLGDKYASWYQQKPGQSPVLVIYQDSKRPSGIPERFSGSNSGNTATLTISGTQAEDEADYYCQSYSGSSTLHVFGGGTKLTVL	–	–	–	< 0.1	–
C-014 (IgG1 format) (antibody, V domains shown) VH: not shown VL: SYELTQPPSVSVSPGQTASITCSGDKLGDKYASWYQQKPGQSPVLVIYQDSKRPSGIPERFSGSNSGNTATLTISGTQAEDEADYYCSTYTVTSSVVVFGGGTKLTVL	–	–	< 1 nM	–	EC50 [3]: 1 to 20 nM
C-013 (IgG1 format) (antibody, V domains shown) VH: not shown VL: SYELTQPPSVSVSPGQTASITCSGDKLGDKYASWYQQKPGQSPVLVIYQDSKRPSGIPERFSGSNSGNTATLTISGTQAEDEADYYCASYLHTPKQFVFGGGTKLTVL	–	–	< 1 nM	–	EC50 [3]: 1 to 20 nM
C-023 (IgG1 format) (antibody, V domains shown) VH: not shown VL: SYELTQPPSVSVSPGQTASITCSGDKLGDKYASWYQQKPGQSPVLVIYQDSKRPSGIPERFSGSNSGNTATLTISGTQAEDEADYYCHTWTHHSLAVVFGGGTKLTVL	–	–	< 1 nM	–	EC50 [3]: < 1 nM
A-023 (scFv format) (scFv, V domains shown, scFv) VH: QVQLVQSGAEVKKPGSSVKVSCKASGGTFSSYAISWVRQAPGQGLEWMGGIIPIFGTANYAQKFQGRVTITADESTSTAYMELSSLRSEDTAVYYCARPKYSSGWFYYYGMDVWGQGTTVTVSS VL: QSVLTQPPSVSAAPGQKVTISCSGSSSNIGNNYVSWYQQLPGTAPKLLIYDNNKRPSGIPDRFSGSKSGTSATLGITGLQTGDEADYYCGTWDSSLSVVFGGGTKLTVL	0.5 to 1 rfu	0.1 to 0.5 rfu	–	–	–
C-007 (Fab format) (Fab, V domains shown, Fab from E. coli lysate) VH: not shown VL: ASVLTQPPSVSAAPGQKVTISCSGSSSNIGNNYVSWYQQLPGTAPKLLIYDNNKRPSGIPDRFSGSKSGTSATLGITGLQAEDEADYYCQLYEEEHSTWVFGGGTKLTVL	–	–	–	< 0.1	–
C-002 (IgG1 format) (antibody, V domains shown) VH: not shown VL: ASVLTQPPSVSAAPGQKVTISCSGSSSNIGNNYVSWYQQLPGTAPKLLIYDNNKRPSGIPDRFSGSKSGTSATLGITGLQAEDEADYYCLSYTTSEHHLVFGGGTKLTVL	–	–	< 1 nM	–	EC50 [3]: 1 to 20 nM
C-026 (Fab format) (Fab, V domains shown, Fab from E. coli lysate) VH: not shown VL: ASVLTQPPSVSAAPGQKVTISCSGSSSNIGNNYVSWYQQLPGTAPKLLIYDNNKRPSGIPDRFSGSKSGTSATLGITGLQAEDEADYYCASYSSETSGWVFGGGTKLTVL	–	–	–	< 0.1	–
C-001 (Fab format) (Fab, V domains shown, Fab from E. coli lysate) VH: not shown VL: ASVLTQPPSVSAAPGQKVTISCSGSSSNIGNNYVSWYQQLPGTAPKLLIYDNNKRPSGIPDRFSGSKSGTSATLGITGLQAEDEADYYCGSWLEERSQYVFGGGTKLTVL	–	–	–	< 0.1	–
C-022 (Fab format) (Fab, V domains shown, Fab from E. coli lysate) VH: EVQLLESGGGLVQPGGSLRLSCAASGFTFSSYAMSWVRQAPGKGLEWVSAISGSGGSTYYADSVKGRFTISRDNSKNTLYLQMNSLRAEDTAAYYCARMAAGASWGTFDYWSQGTLVTVSS VL: DIQMTQSPSSLSASVGDRVTITCRASQSISSYLNWYQQKPGKAPKLLIYAASSLQSGVPSRFSGSGSGTDFTLTISSLQPEDFATYYCQQRSGSPLTFGQGTKVEIK	–	–	–	< 0.1	–
C-021 (IgG1 format) (antibody, V domains shown) VH: not shown VL: DIQMTQSPSSLSASVGDRVTITCRASQSISSYLNWYQQKPGKAPKLLIYAASSLQSGVPSRFSGSGSGTDFTLTISSLQPEDFATYYCQQWSGLPLTFGQGTKVEIK	–	–	< 1 nM	–	–
